Data reported in patent US20090074657A1 (IMMUNE PHARMACEUTICALS, published 2009).

B1: murine monoclonal anti-ferritin antibody AMB8LK (antibody, V domains shown)
VH: QVQLKESGPGLVAPSQSLSITCTVSGFSLSRYSVHWVRQPPGKGLEWLGTIWGGGSTDYNSVLKSRLSISKDNSKSQVLLKVNSLQTDDTAIYYCASGPYYYTMDYWGQGTSVTVSS
VL: QIVLTQSPAILSASLGEEITLTCSASSSVTFMHWYQQKSGTSPKLLIYTTSNLASGVPSRFSGSGSGTFYSLTISSVEAEDAADYYCHQWSSYPTFGSGTKLEIKR
notes: also called unconjugated AMB8LK; native antibody
B2: Bz-DTPA-AMB8LK (antibody, V domains shown)
VH: B1 VH
VL: B1 VL
modifications: about 3 Bz-DTPA chelates per antibody (pSCN-Bz-DTPA conjugation; sites not stated); 111In or 90Y in the radioimmunoassays
notes: also called DTPA conjugate; 111In-DTPA-AMB8LK
B3: Bz-CHX-A″-DTPA-AMB8LK (antibody, V domains shown)
VH: B1 VH
VL: B1 VL
modifications: about 3 Bz-CHX-A″-DTPA chelates per antibody (pSCN-Bz-CHX-A″-DTPA conjugation; sites not stated); 111In or 90Y in the radioimmunoassays
notes: also called CHX-DTPA-AMB8LK; CHX-DTPA
B4: Bz-DOTA-AMB8LK (antibody, V domains shown)
VH: B1 VH
VL: B1 VL
modifications: about 3.2 Bz-DOTA chelates per antibody (pSCN-Bz-DOTA conjugation; sites not stated); 111In or 90Y in the radioimmunoassays
notes: also called DOTA-conjugate; 111In-DOTA-AMB8LK

Experiments:
human ferritin = human ferritin (human, UniProt P02794 2-183; P02792 2-175, limits assumed); experiment: method not stated
[1] = target: T1, human liver ferritin (Calbiochem) (human, UniProt P02794 2-183; P02792 2-175); experiment: solid-phase radioimmunoassay, ferritin immobilised at 5 µg/ml on tubes, 111In-labelled conjugate
T1 construct: Natural ferritin is a multimer of acidic (H) and basic (L) subunits; Adsorbed on plates or tubes in the assays; also called pure ferritin
Procedure: (§1) A solid-phase radioimmunoassay was performed using ¹¹¹In- and ⁹⁰y-labelled antibodies. Maxisorp tunes (Nunc) were incubated overnight at 4° C. with 1.5 to 10 μg/ml ferritin in PBS. After washing, they were blocked by PBS-0.5% BSA for 2 hours at room temperature. 6.25×10³, 12.5×10³ and 25×10³CPM (200 μl) of the antibodies were added in the coated tubes. The activity in each tube was counted in the gamma counter, then the tubes were washed three times with PBS-0.4% Tween-20 and the remaining activity counted. The difference between activities with and without the radiolabelled-antibody solutions indicated the percentage of bound-antibody. For evaluation of non specific binding to ferritin, a 100-fold excess of unconjugated antibody was added to the most concentrated radiolabelled-antibody solution. Non specific binding of the antibody was assessed on uncoated tubes. […] These binding percentages were calculated taking into account small differences in the labelling efficiencies of the three compounds on the day of the experiment.
(§2) ^aFerritin was immobilised at 5 μg/ml on tubes, then the indium or yttrium conjugated antibodies were incubated at three dilutions ([…]) Results are expressed as the mean of the percentage of bound antibody after washing the tubes. Non specific binding of the antibodies were less than 2%. ^bFive serial dilutions of fixed and permeabilized CAPAN-1 cells were incubated with the three radiolabelled compounds. After washing, the activity bound to the cells was counted in a gamma counter. Results were analysed using the GraphPad software; linear regression analysis of (Total CPM/Bound CPM) = f(cells dilution) were very accurate with r² > 0.99 for all three conjugates.

[2] = target: T1, human liver ferritin (Calbiochem); experiment: solid-phase radioimmunoassay, ferritin immobilised at 5 µg/ml on tubes, 90Y-labelled conjugate
Procedure: as §1, §2

[3] = target: T2, ferritin in fixed and permeabilized CAPAN-1 cells (human, UniProt P02794 1-183; P02792 2-175); experiment: Lindmo assay on fixed and permeabilized CAPAN-1 cells, 111In-labelled conjugate
T2 construct: whole, on cells; Endogenous ferritin, over-expressed by CAPAN-1 cells; The cells were fixed and permeabilized, so the ferritin reached is inside the cells; also called cells expressing ferritin
Procedure: Immunoreactivity of the immunoconjugates was assessed on cells expressing ferritin using the method described by Lindmo et al Determination of the immunoreactive fraction of radiolabeled monoclonal antibodies by linear extrapolation to binding at infinite antigen excess. J Immunol Methods 1984; 72 (1):77-89.
The CAPAN-1 cells are a relevant model for human pancreatic cancer (Kyriazis et al Human pancreatic adenocarcinoma line Capan-1 in tissue culture and the nude mouse:morphologic, biologic, and biochemical characteristics. Am J Pathol 1982; 106(2):250-60.). This cell line was established from a liver metastasis of a human pancreatic ductal adenocarcinoma, is tumorigenic and metastatic in nude mice and over-expresses ferritin. […] CAPAN-1 cells were grown in RPMI, 10% foetal calf serum and 2 mM L-glutamine. Cells were harvested at 70-85% confluence using trypsin, washed and resuspended in PBS-0.5% BSA. They were then fixed and permeabilized using the Intrastain kit (rako) following the manufacturer's instructions. Cells were diluted in PBS-0.5% BSA at concentrations ranging from 1.25×10⁵ to 12×10⁶ cells/ml and 500 μl of these suspensions were incubated with a fixed amount of ¹¹¹In-labeled-Ab (250 μl, 50 ng/ml, approximately 100,000CPM) for 2 hours at room temperature under agitation. Suspensions were centrifuged at 5,000×rpm for 5 minutes, the cells were washed with PBS-BSA and the activity in the pellets was counted. Nonspecific binding was determined by co-incubation of the radiolabelled-antibody with a 1.000-fold excess of cold antibody. The total radioactive counts added to each tube were divided by the cell-bound counts after subtraction of the non-specifically bound counts. These values were plotted against the reciprocal of cell dilution. After linear regression analysis, the immunoreactive fraction was obtained from the reciprocal of the intercept on the y-axis.

T1 sequence (P02794 2-183 limits assumed, chain 1 of 2): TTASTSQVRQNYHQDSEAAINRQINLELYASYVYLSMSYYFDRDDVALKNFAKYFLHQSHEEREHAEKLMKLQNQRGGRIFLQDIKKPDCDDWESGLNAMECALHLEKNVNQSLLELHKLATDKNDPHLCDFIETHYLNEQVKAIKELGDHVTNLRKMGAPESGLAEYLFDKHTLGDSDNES
T1 sequence (P02792 2-175 limits assumed, chain 2 of 2): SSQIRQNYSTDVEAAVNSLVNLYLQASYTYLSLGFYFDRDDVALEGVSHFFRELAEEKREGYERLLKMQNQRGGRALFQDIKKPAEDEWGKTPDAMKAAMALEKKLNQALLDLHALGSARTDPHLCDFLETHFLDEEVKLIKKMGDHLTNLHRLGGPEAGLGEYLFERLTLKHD
T2 sequence (P02794 whole entry, chain 1 of 2): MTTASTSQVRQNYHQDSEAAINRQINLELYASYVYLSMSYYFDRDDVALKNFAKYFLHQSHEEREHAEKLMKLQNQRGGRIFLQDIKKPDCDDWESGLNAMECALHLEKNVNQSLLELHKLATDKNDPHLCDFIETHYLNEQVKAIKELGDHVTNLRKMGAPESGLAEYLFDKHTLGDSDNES
T2 sequence (P02792 2-175, chain 2 of 2): as the sequence (P02792 2-175 limits assumed, chain 2 of 2) above
Chain of human ferritin (P02794 2-183 limits assumed, chain 1 of 2): as the sequence (P02794 2-183 limits assumed, chain 1 of 2) above
Chain of human ferritin (P02792 2-175 limits assumed, chain 2 of 2): as the sequence (P02792 2-175 limits assumed, chain 2 of 2) above

| Binder | Kd (human ferritin) [nM] | immunoreactivity (percentage of bound antibody) [1] [%] | immunoreactivity (percentage of bound antibody) [2] [%] | immunoreactivity (immunoreactive fraction) [3] [%] |
| --- | --- | --- | --- | --- |
| B1 | 5.1 |  |  |  |
| B2 |  | 87 | 100 | 52 |
| B3 |  | 74.8 | 98.9 | 43 |
| B4 |  | 76.8 | 73.2 | 24 |
